Test results as given in patent publication US20060286035A1 (CYTOS BIOTECHNOLOGY, published 2006).

Tests used:
[1] = target: T1, T-cadherin (mouse, UniProt Q9WTR5 139-693); assay: flow cytometry titration on 293-EBNA cells transfected with pGF-T-cadherin; half-maximal concentration divided by the molecular weight
T1 construct: whole, on cells; also called adiponectin receptor; pGF-T-cadherin
T1 sequence (looked up): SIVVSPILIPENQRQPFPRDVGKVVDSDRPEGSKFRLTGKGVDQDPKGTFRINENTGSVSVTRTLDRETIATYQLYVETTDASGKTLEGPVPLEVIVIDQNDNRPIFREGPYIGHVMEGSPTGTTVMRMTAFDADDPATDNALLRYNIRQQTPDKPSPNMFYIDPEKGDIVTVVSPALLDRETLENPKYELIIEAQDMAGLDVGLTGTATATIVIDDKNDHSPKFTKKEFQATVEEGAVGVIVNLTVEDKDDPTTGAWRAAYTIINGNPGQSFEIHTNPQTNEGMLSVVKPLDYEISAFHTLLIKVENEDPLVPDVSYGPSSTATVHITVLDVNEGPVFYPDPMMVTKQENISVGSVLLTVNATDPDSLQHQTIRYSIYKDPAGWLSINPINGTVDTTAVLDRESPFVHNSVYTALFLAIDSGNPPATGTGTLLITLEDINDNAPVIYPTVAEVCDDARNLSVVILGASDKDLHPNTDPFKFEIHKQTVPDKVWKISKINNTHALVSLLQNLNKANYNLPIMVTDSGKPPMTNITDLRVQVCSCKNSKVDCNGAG
Method: (§1) 293-EBNA cells were transfected with pGF-T-cadherin. After two days the cells were harvested and stained with decreasing amounts of Acrp30-FLAG-C (50, 25, 12.5, 6.3, 3.1, 1.6, 0.8, 0.4 and 0 μg/ml) as described in example 6. To evaluate the dissociation constant, the geometric mean fluorescence (GMFl) of the GFP positive population was determined using FACS Winmdi software. The GMFl was then normalized as follows: (GMFL of the sample minus GMFl of samples stained with secondary reagents only) divided by maximal GMFL. The protein concentration is shown on the X axis and the normalised GMFL is shown on the Y axis.
(§2) In order to determine the dissociation constant of the adiponectin-T-cadherin interaction, 293-EBNA cells were transfected with pGF-T-cadherin as described in example 6. […] The cells were then analysed by FACS using a FACS Calibur (Becton Dickinson). To determine the binding affinity, the geometric mean fluorescence of the GFP positive population was determined using FACS WINmdi software. The geometric mean fluorescence was then normalised by deducing the mean fluorescence of the sample which was stained with the secondary reagents only from the different samples and then all the values were divided by the maximal fluorescence. The normalised values for the mean fluorescence were than plotted against the concentration of Acrp30-FLAG-C. […]

[2] = target: T1, T-cadherin; assay: flow cytometry titration on 293-EBNA cells transfected with pGF-T-cadherin; normalised geometric mean fluorescence of the GFP positive population
Method: as §1, §2

B1: Acrp30-FLAG-C (ligand)
chain: DADPEDDVTTTEELAPALVPPPKGTCAGWMAGIPGHPGHNGTPGRDGRDGTPGEKGEKGDAGLLGPKGETGDVGVTGAEGPRGFPGTPGRKGEPGEAAYMYRSAFSVGLETRVTVPNVPIRFTKIFYNQQNHYDGSTGKFYCNIPGLYYFSYHITVYMKDVKVSLFKKDKAVLFTYDQYQEKNVDQASGSVLLHLEVGDQVWLQVYGDGDHNGLYADNVNDSTFTGFLLYHDTNSLDDYKDDDDK
notes: The molecular weight used for the Kd is 26546 g/mol (monomer); Three bands on SDS-PAGE from differential glycosylation; also called Adiponectin-bait Acrp30-FLAG-C; adiponectin
[1]
  Kd: 83 nM
[2]
  EC50: 2.2 µg/mL
